Source: patent US20180258172A1 (ZymoGenetics, published 2018)
Blank lines part the entries; values can stand above or below the binder they belong to.

What was measured:
[1] = target: T1, human zB7H6 (full-length, on cells) (human, UniProt Q68D85 25-454); assay: competition FACS on K562 cells against NKp30/mFc2, 100-fold mass excess
T1 construct: also called hzB7H6; hypothetical protein DKFZP686I21167
T1 sequence: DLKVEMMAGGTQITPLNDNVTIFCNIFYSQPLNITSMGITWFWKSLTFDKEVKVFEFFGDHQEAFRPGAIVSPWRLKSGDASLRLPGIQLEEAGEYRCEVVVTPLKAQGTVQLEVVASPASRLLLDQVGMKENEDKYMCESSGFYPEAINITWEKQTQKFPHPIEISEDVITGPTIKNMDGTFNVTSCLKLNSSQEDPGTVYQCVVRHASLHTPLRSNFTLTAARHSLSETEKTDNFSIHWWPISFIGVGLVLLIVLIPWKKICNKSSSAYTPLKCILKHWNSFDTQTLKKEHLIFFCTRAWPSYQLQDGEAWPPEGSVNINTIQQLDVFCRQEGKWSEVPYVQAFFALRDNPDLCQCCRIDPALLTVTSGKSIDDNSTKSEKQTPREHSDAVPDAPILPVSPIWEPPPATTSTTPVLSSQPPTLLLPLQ
Procedure: K562 cells were probed by FACS with a soluble form of NKp30 (NKp30/mFc2 (SEQ ID NO:8), containing the extracellular domain of NKp30 and a murine Fc fragment). K562 cells were resuspended in PBS/2% FBS at a concentration of 1.6×10⁶ cells/ml (160,000 cells/sample). 100 μl samples were aliquoted and 1 μl of whole human IgG (Jackson #009-000-003) added to each. NKp30/mFc2 probe was added at a concentration of 2 μg/ml together with 10 μg/ml Heparin and 100-fold mass excess of a VASP protein (NKp30/VASP or a control VASP protein, human zB7R1/VASP (SEQ ID NO:12) or B7-DC/VASP (SEQ ID NO:13)). Cells were incubated for 1 hour on ice and washed with 2 ml cold PBS. Washed cells were resuspended in 100 μl of PBS/2% FBS with 1 μl PE anti-mIgG (Jackson 115-116-071) and incubated for 30 minutes on ice. Cells were then washed twice with 2 ml cold PBS, resuspended in 500 μl of PBS, and analyzed for PE staining on a FACSCalibur.

NKp30/mFc2 = target: T2, NKp30/mFc2; assay: competition FACS: soluble zB7H6/VASP at 100-fold mass excess competed NKp30/mFc2-biotin binding to K562, 293F and P815 zB7H6 cells
T2 construct: also called soluble NKp30 fusion protein; NKp30/mFc2-biotin
T2 chain: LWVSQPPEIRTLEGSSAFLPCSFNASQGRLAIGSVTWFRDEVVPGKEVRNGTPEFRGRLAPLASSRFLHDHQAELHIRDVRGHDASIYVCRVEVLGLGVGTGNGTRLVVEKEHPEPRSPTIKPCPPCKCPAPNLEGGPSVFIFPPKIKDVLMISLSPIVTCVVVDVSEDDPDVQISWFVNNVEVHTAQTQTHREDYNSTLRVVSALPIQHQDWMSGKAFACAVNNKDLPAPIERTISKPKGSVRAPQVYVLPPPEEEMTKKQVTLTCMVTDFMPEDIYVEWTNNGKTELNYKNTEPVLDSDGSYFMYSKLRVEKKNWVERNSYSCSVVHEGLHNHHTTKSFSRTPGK
Procedure: Cells were resuspended in PBS/2% FBS at a concentration of 1.5×10⁶ cells/ml (150,000 cells/sample). 100 μl samples were aliquoted with 100 μg/ml of whole human IgG (Jackson #009-000-003) included for Fc receptor blocking. NKp30/mFc2-biotin probe was added at a concentration of 2 μg/ml and 100-fold mass excess of a VASP protein (NKp30/VASP or human zB7H6/VASP) or a control VASP protein (B7H3/VASP). Cells were incubated for 1 hour on ice and washed with 2 ml cold PBS. Washed cells were resuspended in 100 μl of PBS/2% FBS with streptavidin-PE (BD:554061) at 1 μg/ml and incubated for 15 minutes on ice. Cells were then washed with 1 ml cold PBS, resuspended in 250 μl of PBS, and analyzed for PE staining on a FACSCalibur.

binding result [1]: binds
B1: NKp30/VASP (receptor)
chain: LWVSQPPEIRTLEGSSAFLPCSFNASQGRLAIGSVTWFRDEVVPGKEVRNGTPEFRGRLAPLASSRFLHDHQAELHIRDVRGHDASIYVCRVEVLGLGVGTGNGTRLVVEKEHPEPRSGSGGSGGSDLQRVKQELLEEVKKELQKVKEEIIEAFVQELRGSGGHHHHHH
notes: no limits or signal peptide residues stated; also called soluble NKp30/VASP A1683F; NKp30/VASP-A647

binding result (NKp30/mFc2): binds
B2: hzB7H6/VASP-His6 (ligand)
chain: DLKVEMMAGGTQITPLNDNVTIFCNIFYSQPLNITSMGITWFWKSLTFDKEVKVFEFFGDHQEAFRPGAIVSPWRLKSGDASLRLPGIQLEEAGEYRCEVVVTPLKAQGTVQLEVVASPASRLLLDQVGMKENEDKYMCESSGFYPEAINITWEKQTQKFPHPIEISEDVITGPTIKNMDGTFNVTSCLKLNSSQEDPGTVYQCVVRHASLHTPLRSNFTLTAARHSLSETEKTDNFSIHWWPEPRSGSGGSGGSDLQRVKQELLEEVKKELQKVKEEIIEAFVQELRGSGGHHHHHH
notes: also called human zB7H6/VASP; zB7H6 C(VASP)H6
